{"source": "patent US20220235138A1", "about": "“CAR-T CELLS TARGETING IL-1RAP AND THEIR USE IN ACUTE MYELOID LEUKEMIA (AML)” (ETABLISSEMENT FRANCAIS DU SANG, priority 2019, published 2022)", "molecules": {"B1": {"name": "IL-1RAP CAR: chimeric antigen receptor: #E3C3 scFv in frame with CD28-4.1BB-CD3z signaling chain; tested in transduced CEM, primary T or 293T cells (protein)", "scFv": "QVQLQQPGAELMMPGASVKVSCEASGYTFTDSWMHWVKQRPGQGLEWIGAIDPSDSYTTYNQKFTGKATLSVDESSNTAYMQLSSLTSEDSAVYYCARYYSGSNYISPFPYWGQGTLVTVSAGGSGGGGSGGGGSVDMESQIQVFVFVFLWLSGVDGDIVMTQSHKFMSTSVGDRVTITCKASLDVSTAVAWYQQKPGQSPKLLIYSASYRYTGVPDRFTGSGSGTDFTFTISSVQAEDLAVYYCQQHYSPPFTFGSGTNLEIK", "modifications": "left off: small tags and cut ends", "notes": "chimeric antigen receptor: #E3C3 scFv in frame with CD28-4.1BB-CD3z signaling chain; tested in transduced CEM, primary T or 293T cells"}}, "key": {"[1]": {"target": "T1, recombinant IL-1RAP biotinylated protein (Homo sapiens, UniProt Q9NPH3)", "T1 sequence (Q9NPH3 21-359 limits assumed)": "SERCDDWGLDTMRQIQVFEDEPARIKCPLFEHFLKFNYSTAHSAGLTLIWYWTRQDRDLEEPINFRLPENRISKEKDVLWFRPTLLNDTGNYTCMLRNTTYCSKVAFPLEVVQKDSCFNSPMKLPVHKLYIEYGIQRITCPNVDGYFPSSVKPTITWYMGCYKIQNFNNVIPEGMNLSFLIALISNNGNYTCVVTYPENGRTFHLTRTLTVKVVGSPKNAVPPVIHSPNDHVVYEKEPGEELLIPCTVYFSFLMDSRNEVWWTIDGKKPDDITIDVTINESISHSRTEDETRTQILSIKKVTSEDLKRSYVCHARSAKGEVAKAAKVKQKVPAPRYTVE", "test": "Flow cytometry detection of cell surface CAR with biotinylated recombinant IL-1RAP", "format": "binding", "conditions": "for amount of recombinant IL-1RAP protein required for recruiting maximum of cells: single experiment", "method": "CEM cell line or primary T cells were transduced either with Mock or CAR IL-1RAP. Cells were then incubated in presence of increasing amount of recombinant IL-1RAP labelled with biotin. Staining was performed with an anti-biotin fluorescent antibody and analyzed by flow cytometry. Percentage of Biotin+/CD19+ CEM or T-cells plotted against amount of labelled biotin recombinant protein. Dot plots of cytometry analyze were provided for representative staining, including maximum. Untransduced T cells (C0) or Mock T cells were used as control.\nAdditional analysis using serial dilution of biotinylated IL-1RAP protein (from 20 ng to 2.4 pg/ml) and FACS analysis allow to detect either IL-1RAP CAR transduced CEM T cell line or primary T-cells."}, "[2]": {"test_system": "iCASP9/AP1903 suicide system", "test": "Optical microscopy of transduced 293T cells after CID AP1903 exposure", "format": "cell-based, human", "conditions": "CID AP1903 20 nM, 24 h (10 nM)"}, "[3]": {"conditions": "transduced primary T-cells (GMTC)"}}}
{"molecule": "B1", "values": [{"measurement": "CAR recognition and binding of IL-1RAP protein", "setting": "[1]", "result": "CAR specific recognition and binding of IL-1RAP protein"}, {"measurement": "maximum percentage of Biotin+/CD19+ cells", "setting": "[1]; transduced CEM T cell line", "result": 85.8, "unit": "%"}, {"measurement": "amount of recombinant IL-1RAP protein required for recruiting maximum of cells", "setting": "[1]; transduced CEM T cell line", "result": 1.25, "unit": "ng"}, {"measurement": "maximum percentage of Biotin+/CD19+ cells", "setting": "[1]; [3]", "result": 68.5, "unit": "%"}, {"measurement": "amount of recombinant IL-1RAP protein required for recruiting maximum of cells", "setting": "[1]; [3]", "result": 0.15, "unit": "ng"}, {"measurement": "sensitivity of transduced 293T cell culture to CID", "setting": "[2]", "result": "sensitive to the CID"}]}
